B1: E7ESP9 (protein)
chain: MSYTLDSLGNPSAYRRVTETRSSFSRVSGSPSSGFRSQSWSRGSPSTVSSSYKRSMLAPRLAYSSAMLSSAESSLDFSQSSSLLNGGSGPGGDYKLSRSNEKEQLQGLNDRFAGYIEKVHYLEQQNKEIEAEIQALRQKQASHAQLGDAYDQEIRELRATLEMVNHEKAQVQLDSDHLEEDIHRLKERFEEEARLRDDTEAAIRALRKDIEEASLVKVELDKKVQSLQDEVAFLRSNHEEEVADLLAQIQASHITVERKDYLKTDISTALKEIRSQLESHSDQNMHQAEEWFKCRYAKLTEAAEQNKEAIRSAKEEIAEYRRQLQSKSIELESVRGTKESLERQLSDIEERHNHDLSSYQDTIQQLENELRGTKWEMARHLREYQDLLNVKMALDIEIAAYRKLLEGEETRFSTFAGSITGPLYTHRPPITISSKIQKPKVEAPKLKVQHKFVEEIIEETKVEDEKSEMEEALTAITEELAVSMKEEKKEAAEEKEEEPE
B2: P02533 (protein)
chain: MTTCSRQFTSSSSMKGSCGIGGGIGGGSSRISSVLAGGSCRAPSTYGGGLSVSSSRFSSGGACGLGGGYGGGFSSSSSSFGSGFGGGYGGGLGAGLGGGFGGGFAGGDGLLVGSEKVTMQNLNDRLASYLDKVRALEEANADLEVKIRDWYQRQRPAEIKDYSPYFKTIEDLRNKILTATVDNANVLLQIDNARLAADDFRTKYETELNLRMSVEADINGLRRVLDELTLARADLEMQIESLKEELAYLKKNHEEEMNALRGQVGGDVNVEMDAAPGVDLSRILNEMRDQYEKMAEKNRKDAEEWFFTKTEELNREVATNSELVQSGKSEISELRRTMQNLEIELQSQLSMKASLENSLEETKGRYCMQLAQIQEMIGSVEEQLAQLRCEMEQQNQEYKILLDVKTRLEQEIATYRRLLEGEDAHLSSSQFSSGSQSSRDVTSSSRQIRTKVMDVHDGKVVSTHEQVLRTKN
B3: C9JU00 (protein)
chain: MIDAATLKSRKMLEEIMKYEASILTHDSSIRYLQEIYNSNNQKIVNLKEKVAQLEAQCQEPCKDTVQIHDITGKDCQDIANKGAKQSGLYFIKPLKANQQFLVYCEIDGSGNGWTVFQKRLDG
B4: P01023 (protein)
chain: MGKNKLLHPSLVLLLLVLLPTDASVSGKPQYMVLVPSLLHTETTEKGCVLLSYLNETVTVSASLESVRGNRSLFTDLEAENDVLHCVAFAVPKSSSNEEVMFLTVQVKGPTQEFKKRTTVMVKNEDSLVFVQTDKSIYKPGQTVKFRVVSMDENFHPLNELIPLVYIQDPKGNRIAQWQSFQLEGGLKQFSFPLSSEPFQGSYKVVVQKKSGGRTEHPFTVEEFVLPKFEVQVTVPKIITILEEEMNVSVCGLYTYGKPVPGHVTVSICRKYSDASDCHGEDSQAFCEKFSGQLNSHGCFYQQVKTKVFQLKRKEYEMKLHTEAQIQEEGTVVELTGRQSSEITRTITKLSFVKVDSHFRQGIPFFGQVRLVDGKGVPIPNKVIFIRGNEANYYSNATTDEHGLVQFSINTTNVMGTSLTVRVNYKDRSPCYGYQWVSEEHEEAHHTAYLVFSPSKSFVHLEPMSHELPCGHTQTVQAHYILNGGTLLGLKKLSFYYLIM
B5: K7ERE3 (protein)
chain: MSLRLQSSSASYGGGFGGGSCQLGGGRGVSTCSTRFVSGGSAGGYGGGVSCGFGGGAGSGFGGGYGGGLGGGYGGGLGGGFGGGFAGGFVDFGACDGGLLTGNEKITMQNLNDRLASYLEKVRALEEANADLEVKIRDWHLKQSPASPERDYSPYYKTIEELRDKILTATIENNRVILEIDNARLAADDFRLKYENELALRQSVEADINGLRRVLDELTLSKTDLEMQIESLNEELAYMKKNHEEEMKEFSNQVVGQVNVEMDATPGIDLTRVLAEMREQYEAMAERNRRDAEEWFHTKSAELNKEVSTNTAMIQTSKTEITELRRTLQGLEIELQSQLSMKAGLENTVAETECRYALQLQQIQGLISSIEAQLSELRSEMECQNQEYKMLLDIKTRLEQEIATYRSLLEGQDAK
B6: P02538 (protein)
chain: MASTSTTIRSHSSSRRGFSANSARLPGVSRSGFSSVSVSRSRGSGGLGGACGGAGFGSRSLYGLGGSKRISIGGGSCAISGGYGSRAGGSYGFGGAGSGFGFGGGAGIGFGLGGGAGLAGGFGGPGFPVCPPGGIQEVTVNQSLLTPLNLQIDPTIQRVRAEEREQIKTLNNKFASFIDKVRFLEQQNKVLETKWTLLQEQGTKTVRQNLEPLFEQYINNLRRQLDSIVGERGRLDSELRGMQDLVEDFKNKYEDEINKRTAAENEFVTLKKDVDAAYMNKVELQAKADTLTDEINFLRALYDAELSQMQTHISDTSVVLSMDNNRNLDLDSIIAEVKAQYEEIAQRSRAEAESWYQTKYEELQVTAGRHGDDLRNTKQEIAEINRMIQRLRSEIDHVKKQCANLQAAIADAEQRGEMALKDAKNKLEGLEDALQKAKQDLARLLKEYQELMNVKLALDVEIATYRKLLEGEECRLNGEGVGQVNISVVQSTVSSGYGGA
B7: P13647 (protein, UniProt P13647 1-590, looked up)
chain: MSRQSSVSFRSGGSRSFSTASAITPSVSRTSFTSVSRSGGGGGGGFGRVSLAGACGVGGYGSRSLYNLGGSKRISISTSGGSFRNRFGAGAGGGYGFGGGAGSGFGFGGGAGGGFGLGGGAGFGGGFGGPGFPVCPPGGIQEVTVNQSLLTPLNLQIDPSIQRVRTEEREQIKTLNNKFASFIDKVRFLEQQNKVLDTKWTLLQEQGTKTVRQNLEPLFEQYINNLRRQLDSIVGERGRLDSELRNMQDLVEDFKNKYEDEINKRTTAENEFVMLKKDVDAAYMNKVELEAKVDALMDEINFMKMFFDAELSQMQTHVSDTSVVLSMDNNRNLDLDSIIAEVKAQYEEIANRSRTEAESWYQTKYEELQQTAGRHGDDLRNTKHEISEMNRMIQRLRAEIDNVKKQCANLQNAIADAEQRGELALKDARNKLAELEEALQKAKQDMARLLREYQELMNTKLALDVEIATYRKLLEGEECRLSGEGVGPVNISVVTSSVSSGYGSGSGYGGGLGGGLGGGLGGGLAGGSSGSYYSSSSGGVGLGGGLSVGGSGFSASSGRGLGVGFGSGGGSSSSVKFVSTTSSSRKSFKS
modifications: full-length
B8: Q9Y2J8 (protein)
chain: MLRERTVRLQYGSRVEAVYVLGTYLWTDVYSAAPAGAQTFSLKHSEHVWVEVVRDGEAEEVATNGKQRWLLSPSTTLRVTMSQASTEASSDKVTVNYYDEEGSIPIDQAGLFLTAIEISLDVDADRDGVVEKNNPKKASWTWGPEGQGAILLVNCDRETPWLPKEDCRDEKVYSKEDLKDMSQMILRTKGPDRLPAGYEIVLYISMSDSDKVGVFYVENPFFGQRYIHILGRRKLYHVVKYTGGSAELLFFVEGLCFPDEGFSGLVSIHVSLLEYMAQDIPLTPIFTDTVIFRIAPWIMTPNILPPVSVFVCCMKDNYLFLKEVKNLVEKTNCELKVCFQYLNRGDRWIQDEIEFGYIEAPHKGFPVVLDSPRDGNLKDFPVKELLGPDFGYVTREPLFESVTSLDSFGNLEVSPPVTVNGKTYPLGRILIGSSFPLSGGRRMTKVVRDFLKAQQVQAPVELYSDWLTVGHVDEFMSFVPIPGTKKFLLLMASTSACYKL

System: PAD2 and PAD4
Experiment: Citrullination site mapping of fibrinogen and vimentin by trypsin digestion and mass spectrometry (protein-level sheet, one search over native, PAD2-cit and PAD4-cit samples)
Format: biochemical, human
Details: modified residues found per protein; Deamidated [R..] = deamidated (citrullinated) arginine positions; trypsin digest, Sequest HT; not split by sample (native, PAD2-citrullinated, PAD4-citrullinated fibrinogen and vimentin)
Source text: Description: Raw mass spectrometry data for proteolytic mapping of fibrinogen, vimentin, and hnRNP A2/B1 by cathepsins B, S, and H (sheets 1-6); citrullination site mapping of fibrinogen and vimentin by trypsin digestion (sheets 7-8); and the natural antigen processing assay with native, PAD2-citrullinated (PAD2-cit), and PAD4-citrullinated (PAD4-cit) fibrinogen (sheets 9-11).

Question: With B1 as the molecule, how does the Modifications read?
Answer: Deamidated [R382]

Question: For B2, which Modifications is on record?
Answer: Deamidated [R125; R194; R282; R336; R439]; Met-loss+Acetyl [N-Term]

Question: For B3, which Modifications is on record?
Answer: Deamidated [R31]

Question: For B4, which Modifications is on record?
Answer: Deamidated [R645; R704; R715; R719; R1401; R1407]

Question: Which Modifications does the source give for B5 here?
Answer: Deamidated [R27; R212]

Question: For B6, which Modifications is on record?
Answer: Deamidated [R182; R222; R326]

Question: With B7 as the molecule, how does the Modifications read?
Answer: Deamidated [R37; R73; R187; R227]

Question: For B8, which Modifications is on record?
Answer: Deamidated [R5; R8; R54; R68; R78; R157; R187; R193; R225; R232; R344; R347; R373; R428; R441; R442; R546; R552; R580; R582; R652; R653]
